Measurements reported in the Human Domainome abundance scans (Beltran et al. 2025).
± gives the uncertainty stated by the source.

B1: E3 ubiquitin-protein ligase Midline-1, residues 172 to 214; numbered along this chain, O15344 (parent)
chain: GLMCLEHEDEKVNMYCVTDDQLICALCKLVGRHRDHQVAALSE

Variants of: B1
Experiment: abundance fitness (aPCA) (normalised: wild type 0, dead -1); higher = more abundant; growth selection in yeast, the domain comes from the species named
Conditions: Homo sapiens

Abundance fitness, by site and new letter:
K28: H 0.083 ± 0.098; L -0.16 ± 0.054; D -0.038 ± 0.35; P 0 ± 0.074; A 0.083 ± 0.059; E 0.007 ± 0.062; R 0.119 ± 0.05; Q 0.288 ± 0.066; G 0.013 ± 0.045; S 0.013 ± 0.069; F -0.316 ± 0.22; V -0.396 ± 0.068; C -0.148 ± 0.074; M -0.114 ± 0.07; W -0.149 ± 0.083; T 0.063 ± 0.06; I 0.061 ± 0.16; Y -0.161 ± 0.082; N -0.042 ± 0.085
I23: G -0.19 ± 0.085; A 0.022 ± 0.068; K -0.312 ± 0.098; R -0.237 ± 0.09; F -0.38 ± 0.31; M 0.011 ± 0.089; C -0.081 ± 0.26; L -0.019 ± 0.26; V 0.151 ± 0.082; S -0.369 ± 0.23; W -0.423 ± 0.39; T -0.1 ± 0.075; D -0.124 ± 0.16; E -0.233 ± 0.15
C24: A -0.799 ± 0.13; G -0.814 ± 0.082; N -0.656 ± 0.21; Y -0.364 ± 0.31; E -1.05 ± 0.14; Q -0.792 ± 0.15; R -1.02 ± 0.1; P -0.977 ± 0.18; W -0.978 ± 0.12; V -0.971 ± 0.13; L -0.868 ± 0.093; T -0.706 ± 0.23; M -1.02 ± 0.39; S -1.01 ± 0.13; K -0.885 ± 0.25
L22: Q 0.29 ± 0.12; N 0.698 ± 0.26; K 0.33 ± 0.076; P 0.428 ± 0.094; W 0.024 ± 0.079; R 0.311 ± 0.059; V -0.025 ± 0.074; E 0.377 ± 0.053; M 0.004 ± 0.11; H 0.482 ± 0.19; G 0.364 ± 0.063; T 0.204 ± 0.075; S 0.316 ± 0.11
Q21: T -0.064 ± 0.099; V 0.044 ± 0.05; I -0.133 ± 0.2; E -0.047 ± 0.063; Y -0.171 ± 0.14; W -0.682 ± 0.092; P -0.524 ± 0.14; A 0.003 ± 0.058; D -0.099 ± 0.11; R 0.031 ± 0.051; C -0.174 ± 0.074; M 0.052 ± 0.094; G -0.133 ± 0.046; F -0.07 ± 0.28; L -0.154 ± 0.07; H 0.231 ± 0.15; S 0.042 ± 0.074
A25: D -0.073 ± 0.094; P -0.124 ± 0.11; W -0.181 ± 0.1; E -0.018 ± 0.055; Q 0.087 ± 0.067; G 0.105 ± 0.046; T -0.16 ± 0.13; K -0.02 ± 0.062; F -0.233 ± 0.12; H 0.188 ± 0.093; I -0.266 ± 0.11; V -0.303 ± 0.095; M -0.23 ± 0.1; C -0.097 ± 0.082; L -0.28 ± 0.064; R 0.099 ± 0.052
C27: G -0.696 ± 0.074; H -0.481 ± 0.31; V -1 ± 0.099; S -0.807 ± 0.11; L -0.883 ± 0.12; I -0.538 ± 0.37; N -0.478 ± 0.45; W -1.01 ± 0.11; Y -0.448 ± 0.35; P -0.166 ± 0.17; Q -0.913 ± 0.2; D -0.328 ± 0.11; A -0.757 ± 0.081; M -1.02 ± 0.2; K -0.429 ± 0.43; E -0.741 ± 0.13; T -0.571 ± 0.14
V30: C -0.115 ± 0.15; A 0.15 ± 0.058; E 0.138 ± 0.064; D 0.145 ± 0.058
D19: T -0.984 ± 0.31; V -1.02 ± 0.14; W -0.779 ± 0.1
D20: G -0.075 ± 0.05; T -0.232 ± 0.087; S -0.038 ± 0.064; A -0.15 ± 0.059; N 0.033 ± 0.19; L -0.404 ± 0.069; M -0.067 ± 0.27; P -0.573 ± 0.1; C -0.308 ± 0.098; Y -0.464 ± 0.15; I -0.543 ± 0.15; W -0.753 ± 0.1; V -0.33 ± 0.064; Q 0.099 ± 0.064; R -0.083 ± 0.05; H -0.106 ± 0.11
L26: I -0.525 ± 0.21; N 0.193 ± 0.2; P 0.295 ± 0.1; R 0.272 ± 0.053; H 0.353 ± 0.17; S 0.165 ± 0.062; D 0.089 ± 0.075; E 0.101 ± 0.054; V 0.027 ± 0.052; Q 0.387 ± 0.077; M 0.031 ± 0.078; C 0.138 ± 0.066; T 0.189 ± 0.078; Y -0.041 ± 0.11; A 0.083 ± 0.058; K 0.193 ± 0.084
L29: K 0.182 ± 0.073; C 0.025 ± 0.081; G 0.213 ± 0.045; V 0.008 ± 0.059; E 0.211 ± 0.06; R 0.227 ± 0.047; M 0.086 ± 0.084; N 0.072 ± 0.093; T 0.175 ± 0.059; S 0.279 ± 0.055; F -0.262 ± 0.14; H 0.19 ± 0.061; A 0.135 ± 0.053; Q -0.016 ± 0.091; I -0.205 ± 0.12; Y -0.085 ± 0.21; D 0.241 ± 0.079
